From US20160053011A1 (ABCLON, published 2016) come the findings set out here.

For orientation: Kd means the free concentration of one partner at which half of the binding sites on the other are occupied at equilibrium, for simple one-to-one binding. For orientation: koff means the rate constant with which the complex falls apart. The kon is a measure of how fast the partners come together.

For test [1], the target named is T1, HER2-ECD-His protein (human, UniProt P04626 23-652).
T1 construct: extracellular domain; not shown: His tag
Nature of the test: SPR (Biacore 3000), HER2-ECD-His amine-coupled to CM5, periplasmic extract as analyte. The method, then:
In order to select clones with improved Koff among the selected clones, the clones were analyzed via Biacore 3000 (GE Healthcare). The HER2-ECD-His protein was immobilized to a CM5 sensor chip via an amine coupling method using ECD/NHS. […] The Koff value for each antibody was analyzed via BIAevaluation software.
For orientation: SPR reads the build-up and loss of mass on a sensor chip optically.

The target of test [2] is ECD. Nature of the test: ELISA on HER2 ECD, absorbance; antibody concentration not given.
The target of test [3] is T1, HER2-ECD-His protein. Kind of test: SPR (Biacore 3000), antibody captured by anti-human IgG, HER2-ECD-His analyte, 1:1 model. As for the experimental part: All the experiments were performed using Biacore 3000. First, the goat antibodies to human IgG were immobilized at a concentration of 1000 RU to a CM5 sensor chip via an amine coupling method. […] Before binding to HER2-ECD-His protein, each antibody was bound at a rate of 50 μL/min for 180 seconds, and allowed the buffer to flow thereonto for stabilization purpose. […] The sensor chip was recycled by allowing 10 mM Glycine-HCl (pH 1.5) buffer to flow thereonto. All the sensorgram data was analyzed via a 1:1 interaction model using BIAevaluation software.

Test [4] concerns the target T2, Domain1 (human, UniProt P04626).
T2 construct: single sub-domain of the extracellular domain; produced in animal cells, purified with Protein-A; also called HER2 sub-domain 1 with hinge region and Fc region of human IgG1
Nature of the test: ELISA on HER2 sub-domain Fc fusions, absorbance; antibody concentration not given. (In an ELISA, binding on a coated surface is turned into a signal by an enzyme label.)

The target in test [5] is T3, Domain2 (human, UniProt P04626).
T3 construct: single sub-domain of the extracellular domain; produced in animal cells, purified with Protein-A; also called HER2 sub-domain 2 with hinge region and Fc region of human IgG1
Described as above.

Test [6] addresses T4, Domain3 (human, UniProt P04626).
T4 construct: single sub-domain of the extracellular domain; produced in animal cells, purified with Protein-A; also called HER2 sub-domain 3 with hinge region and Fc region of human IgG1
The description is as above.

In test [7] the target is T5, Mouse (mouse, UniProt P70424).
T5 construct: extracellular domain; also called HER2 extracellular domain of a mouse (Sino Biological Inc., #50714-M08H); mouse HER2
T5 sequence (P70424 23-653): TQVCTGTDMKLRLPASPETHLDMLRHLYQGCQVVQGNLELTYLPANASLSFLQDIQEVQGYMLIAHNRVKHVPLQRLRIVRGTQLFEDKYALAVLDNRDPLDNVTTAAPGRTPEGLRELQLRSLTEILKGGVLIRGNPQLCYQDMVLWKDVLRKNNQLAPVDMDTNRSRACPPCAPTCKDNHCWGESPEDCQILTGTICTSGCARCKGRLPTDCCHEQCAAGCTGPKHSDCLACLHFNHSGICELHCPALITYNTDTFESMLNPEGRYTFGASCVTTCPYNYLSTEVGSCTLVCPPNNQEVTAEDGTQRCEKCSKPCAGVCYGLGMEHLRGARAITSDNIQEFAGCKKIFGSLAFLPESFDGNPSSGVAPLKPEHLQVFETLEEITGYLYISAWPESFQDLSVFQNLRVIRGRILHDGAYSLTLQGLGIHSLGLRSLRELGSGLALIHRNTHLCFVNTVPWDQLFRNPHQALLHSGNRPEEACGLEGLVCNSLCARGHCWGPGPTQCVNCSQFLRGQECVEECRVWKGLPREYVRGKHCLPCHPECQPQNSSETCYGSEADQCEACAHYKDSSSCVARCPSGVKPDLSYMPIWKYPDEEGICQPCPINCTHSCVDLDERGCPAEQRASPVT
Nature of the test: ELISA on HER2 extracellular domains of five species, absorbance; antibody concentration not given.

Test [8] addresses T6, Rat (rat, UniProt P06494).
T6 construct: extracellular domain; also called HER2 extracellular domain of a rat (Sino Biological Inc., #80079-R08H); rat HER2
The test is described as above.

For test [9], the target named is T7, HER2 extracellular domain of a rhesus monkey (Sino Biological Inc., #90020-K08H) (rhesus monkey, UniProt I0FM22 23-652).
T7 construct: extracellular domain; Purchased; also called rhesus monkey HER2
Described as above.

Test [10] addresses T8, EGFR-ECD-Fc (human, UniProt P00533 25-645).
T8 construct: extracellular domain; Produced in the same manner as HER2-ECD-Fc; not shown: hinge region of human IgG1 and Fc portion (CH2-CH3), as in HER2-ECD-Fc
Kind of test: ELISA on extracellular domains of ErbB family proteins, absorbance; antibody concentration not given.

Test [11] concerns the target T9, HER3 extracellular domain (R&D Systems, #348-RB-050) (human, UniProt P21860 20-643).
T9 construct: extracellular domain; Purchased
The test is described as above.

In test [12] the target is T10, HER4 extracellular domain (R&D Systems, #1131-ER-050) (human, UniProt Q15303 26-651).
T10 construct: extracellular domain; Purchased
T10 sequence (looked up): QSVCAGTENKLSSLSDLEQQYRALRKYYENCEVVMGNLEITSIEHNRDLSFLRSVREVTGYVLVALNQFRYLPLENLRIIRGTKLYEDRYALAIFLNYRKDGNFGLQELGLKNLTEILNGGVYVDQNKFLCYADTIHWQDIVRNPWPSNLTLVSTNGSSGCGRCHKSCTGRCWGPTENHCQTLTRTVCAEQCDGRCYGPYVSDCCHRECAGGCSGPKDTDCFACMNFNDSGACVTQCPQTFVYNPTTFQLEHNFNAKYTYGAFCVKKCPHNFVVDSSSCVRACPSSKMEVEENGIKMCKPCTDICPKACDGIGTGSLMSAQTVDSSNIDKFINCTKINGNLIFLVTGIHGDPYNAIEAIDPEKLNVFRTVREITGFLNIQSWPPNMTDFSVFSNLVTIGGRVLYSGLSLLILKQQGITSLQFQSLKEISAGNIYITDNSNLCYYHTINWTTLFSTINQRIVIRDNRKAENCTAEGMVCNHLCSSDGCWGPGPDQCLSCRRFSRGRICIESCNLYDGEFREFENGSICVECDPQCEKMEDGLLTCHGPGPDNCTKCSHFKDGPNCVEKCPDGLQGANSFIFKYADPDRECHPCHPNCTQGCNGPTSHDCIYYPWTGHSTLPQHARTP
The test is described as above.

T6 sequence (P06494 23-654): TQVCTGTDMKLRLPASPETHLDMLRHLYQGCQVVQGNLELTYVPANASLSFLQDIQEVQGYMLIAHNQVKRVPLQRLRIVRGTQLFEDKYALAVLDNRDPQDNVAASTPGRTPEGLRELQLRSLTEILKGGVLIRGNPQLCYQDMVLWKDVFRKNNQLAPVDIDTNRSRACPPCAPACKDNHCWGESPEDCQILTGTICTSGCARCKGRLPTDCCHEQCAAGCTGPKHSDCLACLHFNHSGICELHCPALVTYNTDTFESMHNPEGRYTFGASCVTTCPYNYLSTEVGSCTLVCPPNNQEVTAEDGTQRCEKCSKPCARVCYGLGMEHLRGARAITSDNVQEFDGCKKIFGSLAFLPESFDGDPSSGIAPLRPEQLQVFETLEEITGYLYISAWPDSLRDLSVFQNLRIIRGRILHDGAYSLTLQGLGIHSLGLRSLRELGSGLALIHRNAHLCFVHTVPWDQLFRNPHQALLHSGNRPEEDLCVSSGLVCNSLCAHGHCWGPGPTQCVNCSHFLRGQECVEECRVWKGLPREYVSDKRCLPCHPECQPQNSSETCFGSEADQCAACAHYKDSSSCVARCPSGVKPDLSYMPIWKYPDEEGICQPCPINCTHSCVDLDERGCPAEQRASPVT

B1: M3-L-A3-4-2E8 (antibody, V domains shown)
VH: EVQLVESGGGLVQPGGSLRLSCAASGFTFSSYTMSWVRQAPGKGLEWVAYISNGGGSTYYPDTVKGRFTISRDNAKNSLYLQMNSLRAEDTAVYYCARHLGGTASFDYWGQGTLVTVSS
VL: DIQMTQSPSSLSASVGDRVTITCLASQTIGTWLAWYQQKPGKAPKLLIYVATSLADGVPSRFSGSGSGTDFTLTISSLQPEDFATYYCQQIAYVPWTFGQGTKVEIK
notes: hz1E11 library clone, periplasmic extract
As for B1, in test [1], the “Degree of reduction (Fold) of koff against hz1E11” value (from here on “Degree of reduction (Fold) of koff”) came to 5.9 fold.

B2: M3-LH-A1-1-1H1 (antibody, name in Kabat numbering, V domains shown)
VH: EVQLVESGGGLVQPGGSLRLSCAASGFTFSSYTMSWVRQAPGKGLEWVAYISNGGGSTYYPDTVKGRFTISRDNAKNSLYLQMNSLRAEDTAVYYCARNYGGTASFDYWGQGTLVTVSS
VL: DIQMTQSPSSLSASVGDRVTITCLASQTIGTWLAWYQQKPGKAPKLLIYVATSLADGVPSRFSGSGSGTDFTLTISSLQPEDFATYYCQQNFIAPWTFGQGTKVEIK
notes: as for B1
As for B2, in test [1], the “Degree of reduction (Fold) of koff” value is 0.7 fold.

B3: M3-LH-A3-3-2F1 (antibody, V domains shown)
VH: EVQLVESGGGLVQPGGSLRLSCAASGFTFSSYTMSWVRQAPGKGLEWVAYISNGGGSTYYPDTVKGRFTISRDNAKNSLYLQMNSLRAEDTAVYYCARHLGGTASFDYWGQGTLVTVSS
VL: DIQMTQSPSSLSASVGDRVTITCLASQTIGTWLAWYQQKPGKAPKLLIYVATSLADGVPSRFSGSGSGTDFTLTISSLQPEDFATYYCQQNAYNPWTFGQGTKVEIK
notes: as for B1
Consider B3, for which, in test [1], the “Degree of reduction (Fold) of koff” value was determined as 4.4 fold.

B4: M3-LH-A1-2-2F4 (antibody, name in Kabat numbering, V domains shown)
VH: EVQLVESGGGLVQPGGSLRLSCAASGFTFSSYTMSWVRQAPGKGLEWVAYISNGGGSTYYPDTVKGRFTISRDNAKNSLYLQMNSLRAEDTAVYYCARNLGGTASFDYWGQGTLVTVSS
VL: DIQMTQSPSSLSASVGDRVTITCLASQTIGTWLAWYQQKPGKAPKLLIYVATSLADGVPSRFSGSGSGTDFTLTISSLQPEDFATYYCQQLVRIPWTFGQGTKVEIK
notes: as for B1
Take B4: in [1], the “Degree of reduction (Fold) of koff” value was determined as 3.2 fold.

B5: M3-LH-A3-3-2A5 (antibody, name in Kabat numbering, V domains shown)
VH: EVQLVESGGGLVQPGGSLRLSCAASGFTFSSYTMSWVRQAPGKGLEWVAYISNGGGSTYYPDTVKGRFTISRDNAKNSLYLQMNSLRAEDTAVYYCARHWGGTASFDYWGQGTLVTVSS
VL: DIQMTQSPSSLSASVGDRVTITCLASQTIGTWLAWYQQKPGKAPKLLIYVATSLADGVPSRFSGSGSGTDFTLTISSLQPEDFATYYCQQMFSTPWTFGQGTKVEIK
notes: as for B1
As for B5, the “Degree of reduction (Fold) of koff” value in test [1] came to 3.6 fold.

B6: 1E11 antibody (antibody, V domains shown)
VH: EVKLVESGGGLVQPGGSLKLSCAASGFTFSSYTMSWVRQTPEKRLEWVAYISNGGGSTYYPDTVKGRFTISRDNAKNTLYLQMSSLKSEDTAMYYCARHLGGTASFDYWGQGTTVTVSS
VL: DIQMTQSPASQSASLGESVTITCLASQTIGTWLAWYQQKPGKSPQLLIYVATSLADGVPSRFSGSGSGTKFSFKISSLQAEDFVSYYCQQLYSTPWTFGGGTKLELK
notes: Mouse variable regions; also called 1E11 clones; chimeric 1E11
In the case of B6, the binding result is on record as “binds” in test [2]; “no binding” in test [4]; “no binding” in test [5]; “no binding” in [6]; “no binding” in [7]; “no binding” in test [8]. Also, the binding result was “binds” in test [9], “no binding” in [10], “no binding” in [11] and “no binding” in test [12]. Also, the Kd in test [3] amounted to 16 nM. The same molecule returned a koff in test [3] of 0.00047 s⁻¹. For the same molecule, the kon in test [3] was 30000 M⁻¹ s⁻¹.
